{"source": "patent US20110111461A1", "about": "(Hoffmann-La Roche, published 2011)"}
{"molecular_target": "T1, human epidermal growth factor receptor (EGFR) (human, UniProt P00533 25-1210)", "T1 construct": "whole, on cells; also called HER-1; ErbB1", "assay": "flow cytometry on A431 cells; light chain variants paired with I-HHD", "description": "(§1) The purified, monomeric humanized antibody variants were tested for binding to human epidermal growth factor receptor (EGFR, also referred to in the literature as HER-1 or ErbB1) on the A431 human epidermal cell line, using a flow cytometry-based assay. 200,000 cells (e.g., from human A431 cell line) in 180 μl FACS buffer (PBS containing 2% FCS and 5 mM EDTA) were transferred to 5 ml polystyrene tubes and 20 μl 10 fold concentrated anti-EGFR antibody (primary antibody) samples (1-5000 ng/ml final concentration) or PBS only were added. After gently mixing the samples, the tubes were incubated at 4° C. for 30 min in the dark. Subsequently, samples were washed twice with FACS buffer and pelleted at 300×g for 3 min. Supernatant was aspirated off and cells were taken up in 50 μl FACS buffer and 2 μl secondary antibody (anti-Fc-specific F(ab′)2-FITC fragments (Jackson Immuno Research Laboratories, USA)) was added and the tubes were incubated at 4° C. for 30 min. Samples were washed twice with FACS buffer and taken up in 500 μl of FACS buffer for analysis by Flow Cytometry. Binding was determined by plotting the geometric mean fluorescence against the antibody concentrations.\nEach of the I-KC variant constructs (I-KCl to I-KC9) was paired with a heavy chain variable region comprising construct I-HHD (SEQ ID NO:16 and SEQ ID NO:15) and a binding assay performed according to the methods described in the previous examples. Constructs I-KCl to I-KC9 were compared to the I-KC construct (SEQ ID NO:46 and SEQ ID NO:45) for binding affinity to EGFR in A431 target cells (FIG. 29). […] Therefore, when paired with a chimeric (e.g., humanized) heavy chain construct specific for EGFR, the light chain can be entirely human (e.g., from a human light chain V gene sequence) and still retain specific binding for EGFR. In particular, CDR2 and CDR3 can be entirely in human germline form."}
{"binder": "humanized ICR62 antibody I-HHD / I-KC1 (antibody, human IgG1, V domains shown, also called I-KCl) VH: QVQLVQSGAEVKKPGSSVKVSCKASGFTFTDYKIHWVRQAPGQGLEWMGYFNPNSGYSTYAQKFQGRVTITADKSTSTAYMELSSLRSEDTAVYYCARLSPGGYYVMDAWGQGTTVTVSS VL: DIQMTQSPSSLSASVGDRVTITCRASQGIRNYLNWYQQKPGKAPKRLIYNTNNLQTGVPSRFSGSGSGTEFTLTISSLQPEDFATYYCLQHNSFPTFGQGTKLEIKR", "binding result": "binds"}
{"binder": "humanized ICR62 antibody I-HHD / I-KC2 (antibody, human IgG1, V domains shown) VH: QVQLVQSGAEVKKPGSSVKVSCKASGFTFTDYKIHWVRQAPGQGLEWMGYFNPNSGYSTYAQKFQGRVTITADKSTSTAYMELSSLRSEDTAVYYCARLSPGGYYVMDAWGQGTTVTVSS VL: DIQMTQSPSSLSASVGDRVTITCRASQGINNWLNWYQQKPGKAPKRLIYNTNNLQTGVPSRFSGSGSGTEFTLTISSLQPEDFATYYCLQHNSFPTFGQGTKLEIKR", "binding result": "binds"}
{"molecular_target": "T1, human epidermal growth factor receptor …", "assay": "flow cytometry on A431 cells", "description": "as §1\nOnly the I-HHA has strongly diminished binding activity (see FIG. 2). […] In this experiment, either the light chain, the heavy chain or both chains simultaneously of the ch-ICR62 were replaced by the above mentioned humanized constructs.", "units": {"EC50 fold decrease relative to ch-ICR62": "fold", "EC50": "µg/mL", "EC50 fold increase relative to ch-ICR62, I-HLA1 and I-HLA2": "fold"}}
{"binder": "humanized ICR62 antibody I-HHB / I-KC (not glycoengineered) (antibody, human IgG1, V domains shown, also called I-HHB/KC) VH: QVQLVQSGAEVKKPGSSVKVSCKGSGFTFTDYKIHWVRQAPGQGLEWMGYFNPNSGYSTYAQKFQGRVTITADKSTSTAYMELSSLRSEDTAVYYCARLSPGGYYVMDAWGQGTTVTVSS VL: DIQMTQSPSSLSASVGDRVTITCRASQGINNYLNWYQQKPGKAPKRLIYNTNNLQTGVPSRFSGSGSGTEFTLTISSLQPEDFATYYCLQHNSFPTFGQGTKLEIKR", "binding result": "binds"}
{"binder": "humanized ICR62 antibody I-HHF / I-KC (antibody, human IgG1, V domains shown) VH: QVQLVQSGAEVKKPGSSVKVSCKGSGFTFTDYKIHWVRQAPGQGLEWMGYFNPNSGYSNYAQKFQGRVTITADKSTSTAYMELSSLRSEDTAVYYCARLSPGGYYVMDAWGQGTTVTVSS VL: DIQMTQSPSSLSASVGDRVTITCRASQGINNYLNWYQQKPGKAPKRLIYNTNNLQTGVPSRFSGSGSGTEFTLTISSLQPEDFATYYCLQHNSFPTFGQGTKLEIKR", "binding result": "binds"}
{"binder": "humanized ICR62 antibody I-HHG / I-KC (antibody, human IgG1, V domains shown) VH: QVQLVQSGAEVKKPGSSVKVSCKGSGFTFTDYKIHWVRQAPGQGLEWMGYFNPNSGYATYAQKFQGRVTITADKSTSTAYMELSSLRSEDTAVYYCARLSPGGYYVMDAWGQGTTVTVSS VL: DIQMTQSPSSLSASVGDRVTITCRASQGINNYLNWYQQKPGKAPKRLIYNTNNLQTGVPSRFSGSGSGTEFTLTISSLQPEDFATYYCLQHNSFPTFGQGTKLEIKR", "binding result": "binds"}
{"binder": "humanized ICR62 antibody I-HLA8 / I-KC (antibody, human IgG1, V domains shown) VH: QMQLVQSGPEVKKPGTSVKVSCKASGFTFTDYKIHWVRQAPGQGLEWMGYFNPNSGYSTYAQKFQGRVTITADKSTSTAYMELSSLRSEDTAVYYCARLSPGGYYVMDAWGQGTTVTVSS VL: DIQMTQSPSSLSASVGDRVTITCRASQGINNYLNWYQQKPGKAPKRLIYNTNNLQTGVPSRFSGSGSGTEFTLTISSLQPEDFATYYCLQHNSFPTFGQGTKLEIKR", "EC50 fold decrease relative to ch-ICR62": 2}
{"binder": "humanized ICR62 antibody I-HLA9 / I-KC (antibody, human IgG1, V domains shown) VH: EVQLVQSGAEVKKPGESLKISCKGSGYSFTDYKIHWVRQAPGQGLEWMGYFNPNSGYSTYAQKFQGRVTITADKSTSTAYMELSSLRSEDTAVYYCARLSPGGYYVMDAWGQGTTVTVSS VL: DIQMTQSPSSLSASVGDRVTITCRASQGINNYLNWYQQKPGKAPKRLIYNTNNLQTGVPSRFSGSGSGTEFTLTISSLQPEDFATYYCLQHNSFPTFGQGTKLEIKR", "binding result": "binds"}
{"binder": "humanized ICR62 antibody I-HLA2 / I-KC (antibody, human IgG1, V domains shown) VH: QVQLVQSGAEVKKPGASVKVSCKASGFTFTDYYMHWVRQAPGQGLEWMGWINPNSGYSTYNEKFQGQVTISADKSISTAYLQWSSLKASDTAMYYCARLSPGGYYVMDAWGQGTTVTVSS VL: DIQMTQSPSSLSASVGDRVTITCRASQGINNYLNWYQQKPGKAPKRLIYNTNNLQTGVPSRFSGSGSGTEFTLTISSLQPEDFATYYCLQHNSFPTFGQGTKLEIKR", "EC50": "~0.3"}
{"binder": "humanized ICR62 antibody I-HLA1 / I-KC (antibody, human IgG1, V domains shown) VH: QVQLVQSGAEVKKPGASVKVSCKASGFTFTDYYMHWVRQAPGQGLEWMGWINPNSGYSTYSPSFQGQVTISADKSISTAYLQWSSLKASDTAMYYCARLSPGGYYVMDAWGQGTTVTVSS VL: DIQMTQSPSSLSASVGDRVTITCRASQGINNYLNWYQQKPGKAPKRLIYNTNNLQTGVPSRFSGSGSGTEFTLTISSLQPEDFATYYCLQHNSFPTFGQGTKLEIKR", "EC50": "~0.3"}
{"binder": "humanized ICR62 antibody I-HLA3 / I-KC (antibody, human IgG1, V domains shown) VH: QVQLVQSGAEVKKPGASVKVSCKASGYTFTDYYMHWVRQAPGQGLEWMGWINPNSGYSTYSPSFQGQVTISADKSISTAYLQWSSLKASDTAMYYCARLSPGGYYVMDAWGQGTTVTVSS VL: DIQMTQSPSSLSASVGDRVTITCRASQGINNYLNWYQQKPGKAPKRLIYNTNNLQTGVPSRFSGSGSGTEFTLTISSLQPEDFATYYCLQHNSFPTFGQGTKLEIKR", "EC50 fold increase relative to ch-ICR62, I-HLA1 and I-HLA2": 2}
{"binder": "humanized ICR62 antibody I-HLA4 / I-KC (antibody, human IgG1, V domains shown) VH: QVQLVQSGAEVKKPGASVKVSCKASGYTFTDYYMHWVRQAPGQGLEWMGWINPNSGYSTYNEKFQGQVTISADKSISTAYLQWSSLKASDTAMYYCARLSPGGYYVMDAWGQGTTVTVSS VL: DIQMTQSPSSLSASVGDRVTITCRASQGINNYLNWYQQKPGKAPKRLIYNTNNLQTGVPSRFSGSGSGTEFTLTISSLQPEDFATYYCLQHNSFPTFGQGTKLEIKR", "EC50 fold increase relative to ch-ICR62, I-HLA1 and I-HLA2": 2}
{"binder": "humanized ICR62 antibody I-HLA5 / I-KC (antibody, human IgG1, V domains shown) VH: QMQLVQSGPEVKKPGTSVKVSCKASGFTFTDYYMHWVRQAPGQGLEWMGWINPNSGYSTYSPSFQGQVTISADKSISTAYLQWSSLKASDTAMYYCARLSPGGYYVMDAWGQGTTVTVSS VL: DIQMTQSPSSLSASVGDRVTITCRASQGINNYLNWYQQKPGKAPKRLIYNTNNLQTGVPSRFSGSGSGTEFTLTISSLQPEDFATYYCLQHNSFPTFGQGTKLEIKR", "EC50 fold increase relative to ch-ICR62, I-HLA1 and I-HLA2": 2}
{"binder": "humanized ICR62 antibody I-HLA6 / I-KC (antibody, human IgG1, V domains shown) VH: QMQLVQSGPEVKKPGTSVKVSCKASGFTFTDYYMHWVRQAPGQGLEWMGWINPNSGYSTYNEKFQGQVTISADKSISTAYLQWSSLKASDTAMYYCARLSPGGYYVMDAWGQGTTVTVSS VL: DIQMTQSPSSLSASVGDRVTITCRASQGINNYLNWYQQKPGKAPKRLIYNTNNLQTGVPSRFSGSGSGTEFTLTISSLQPEDFATYYCLQHNSFPTFGQGTKLEIKR", "EC50 fold increase relative to ch-ICR62, I-HLA1 and I-HLA2": 2}
{"binder": "humanized ICR62 antibody I-HLA7 / I-KC (antibody, human IgG1, V domains shown) VH: QMQLVQSGPEVKKPGTSVKVSCKASGFTFTDYKIHWVRQARGQRLEWIGWINPNSGYSTYNEKFQGQVTISADKSISTAYLQWSSLKASDTAMYYCARLSPGGYYVMDAWGQGTTVTVSS VL: DIQMTQSPSSLSASVGDRVTITCRASQGINNYLNWYQQKPGKAPKRLIYNTNNLQTGVPSRFSGSGSGTEFTLTISSLQPEDFATYYCLQHNSFPTFGQGTKLEIKR", "binding result": "binds"}
{"binder": "humanized ICR62 antibody I-HHC / I-KB (antibody, human IgG1, V domains shown) VH: QVQLVQSGAEVKKPGSSVKVSCKGSGFTFTDYKIHWVRQAPGQGLEWMGYFNPNSGYSTYNEKFKSRVTITADKSTSTAYMELSSLRSEDTAVYYCARLSPGGYYVMDAWGQGTTVTVSS VL: DIQMTQSPSSLSASVGDRVTITCKASQNINNYLNWYQQKPGKAPKRLIYNTNNLQTGVPSRFSGSGSGTEYTLTISSLQPEDFATYYCLQHNSFPTFGQGTKLEIKR", "binding result": "binds"}
{"binder": "humanized ICR62 antibody I-HLA / I-KA (antibody, human IgG1, V domains shown) VH: QVQLVQSGAEVKKPGASVKVSCKASGFTFTDYYMHWVRQAPGQGLEWMGWINPNSGYSTYAQKFQGRVTMTADTSISTAYMELSRLRSDDTAVYYCARLSPGGYYVMDAWGQGTTVTVSS VL: DIQMTQSPSSLSASVGDRVTITCRASQGINNYLNWYQQKPGKAPKRLIYNTNNLQTGVPSRFSGSGSGTEYTLTISSLQPEDFATYYCLQHNSFPTFGQGTKLEIKR", "binding result": "binds"}
{"binder": "humanized ICR62 antibody I-HLA / I-KB (antibody, human IgG1, V domains shown) VH: QVQLVQSGAEVKKPGASVKVSCKASGFTFTDYYMHWVRQAPGQGLEWMGWINPNSGYSTYAQKFQGRVTMTADTSISTAYMELSRLRSDDTAVYYCARLSPGGYYVMDAWGQGTTVTVSS VL: DIQMTQSPSSLSASVGDRVTITCKASQNINNYLNWYQQKPGKAPKRLIYNTNNLQTGVPSRFSGSGSGTEYTLTISSLQPEDFATYYCLQHNSFPTFGQGTKLEIKR", "binding result": "binds"}
{"binder": "I-HHC heavy chain combined with the chimeric ICR62 light chain (rVL) (antibody, human IgG1, V domains shown, also called I-HHC / rVL) VH: QVQLVQSGAEVKKPGSSVKVSCKGSGFTFTDYKIHWVRQAPGQGLEWMGYFNPNSGYSTYNEKFKSRVTITADKSTSTAYMELSSLRSEDTAVYYCARLSPGGYYVMDAWGQGTTVTVSS VL: DIQMTQSPSFLSASVGDRVTINCKASQNINNYLNWYQQKLGEAPKRLIYNTNNLQTGIPSRFSGSGSGTDYTLTISSLQPEDFATYFCLQHNSFPTFGAGTKLELKR", "binding result": "binds"}
